In IntAct's records for PubMed 21850687:

How the values were obtained:
[1] = molecular target: prdx3_human PRDX3 (UniProt P30048)
[2] = molecular target: prdx3_human PRDX3 (UniProt P30048); remark: listed apart in the source

Chain of UniProt P30048 (P30048 whole entry): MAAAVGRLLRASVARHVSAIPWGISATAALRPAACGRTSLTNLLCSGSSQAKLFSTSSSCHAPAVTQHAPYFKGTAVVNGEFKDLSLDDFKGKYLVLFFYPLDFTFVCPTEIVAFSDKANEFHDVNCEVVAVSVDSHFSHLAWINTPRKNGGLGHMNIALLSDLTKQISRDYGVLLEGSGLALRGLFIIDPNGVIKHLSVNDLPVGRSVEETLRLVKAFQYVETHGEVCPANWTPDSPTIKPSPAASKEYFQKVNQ

effect of a mutation on the interaction [1]	effect of a mutation on the interaction [2]	Substance
increasing interaction		Leucine-rich repeat serine/threonine-protein kinase 2 (Homo sapiens), Q5S007 G2019S
	disrupting interaction	Leucine-rich repeat serine/threonine-protein kinase 2 (Homo sapiens), Q5S007 G2019V;I2020F
